Measured values published in US20050226813A1, “Labelled somatostatin analogs backbone cyclized through metal complexation” (priority 2002, published 2005).
*1 amine or outer side, *2 acyl side, *3 side chain or, on linkers, in order; H or OH if unused. Where no end group is shown, it is not given here. [ ]: non-standard residue; d: D form. ReO = oxorhenium(V), one metal core binding both hemi-chelators, from trichlorooxobis(triphenylphosphine)rhenium(V); GlyN3 = N-(3-aminopropyl)glycine amide, Cys acylated on the omega-amine, NC(=O)CN(CCCN[*:3])[*:1]; GlyN6 = Gly building unit carrying an omega-amine (Cys attached there); N(6-aminohexyl)Gly = O=C(CN(CCCCCCN[*:3])[*:1])[*:2]; N(2-Aminoethyl)Gly = O=C(CN(CCN[*:3])[*:1])[*:2]

B1: ReO-GF-2 (peptide)
peptide: CXFWWKTFG
modifications: L-Cys at 1; GABA at 2 (written X); D-Trp at 5; GlyN6 building unit at 9 with D-Cys on its omega-amine; C-terminal amide; ReO (oxorhenium(V)) chelated by the two Cys closes the ring
notes: also called ReO-GF-02; ReO-LCys*-GABA-Phe-Trp-DTrp-Lys-Thr-Phe-GlyN6(DCys*)-NH2
B2: ReO-GF-4 (peptide)
peptide: CXFWWKTFG
modifications: not fully specified; D-Cys at 1; GABA at 2 (written X); D-Trp at 5; GlyN6 building unit at 9 with D-Cys on its omega-amine; C-terminal amide; ReO (oxorhenium(V)) chelated by the two Cys closes the ring
B3: ReO-GF-26 (peptide)
peptide: CGFW[dW]KTF[GlyN3](dC)-NH2
modifications: bridge (positions not given here) via ReO; not fully specified (bridges); also: N2S2 oxorhenium(V) chelate via the two Cys
B4: ReO-GF-40 (peptide)
peptide: CXFWWKTFG
modifications: not fully specified; D-Cys at 1; beta-Ala at 2 (written X); D-Trp at 5; GlyN2 building unit at 9 with D-Cys on its omega-amine; C-terminal amide; ReO (oxorhenium(V)) chelated by the two Cys closes the ring
B5: ReO-GF-6 (peptide)
peptide: CXFWWKTFG
modifications: L-Cys at 1; beta-Ala at 2 (written X); D-Trp at 5; GlyN6 building unit at 9 with D-Cys on its omega-amine; C-terminal amide; ReO (oxorhenium(V)) chelated by the two Cys closes the ring
notes: also called ReO-GF-06; ReO-LCys*-βAla-Phe-Trp-DTrp-Lys-Thr-Phe-GlyN6(DCys*)-NH2
B6: ReO-GF-48 (peptide)
peptide: CFWWKTFG
modifications: not fully specified; D-Cys at 1; D-Trp at 4; GlyN2 building unit at 8 with D-Cys on its omega-amine; C-terminal amide; ReO (oxorhenium(V)) chelated by the two Cys closes the ring
B7: ReO-GF-11 (peptide)
peptide: CGFWWKTFG
modifications: not fully specified; D-Cys at 1; D-Trp at 5; GlyN6 building unit at 9 with L-Cys on its omega-amine; C-terminal amide; ReO (oxorhenium(V)) chelated by the two Cys closes the ring
notes: also called ReO-DCys*-Gly-Phe-Trp-DTrp-Lys-Thr-Phe-GlyN6(LCys*)-NH2
B8: ReO-GF-13 (peptide)
peptide: CFW[dW]KTF[GlyN6](Cys)-NH2
modifications: bridge (positions not given here) via ReO; not fully specified (bridges); also: oxorhenium(V) metal chelate (N2S2)
B9: ReO-GF-1 (peptide)
peptide: CXFWWKTFG
modifications: L-Cys at 1; GABA at 2 (written X); D-Trp at 5; GlyN6 building unit at 9 with L-Cys on its omega-amine; C-terminal amide; ReO (oxorhenium(V)) chelated by the two Cys closes the ring
B10: ReO-GF-34 (peptide)
peptide: CXFWWKTFG
modifications: L-Cys at 1; GABA at 2 (written X); D-Trp at 5; GlyN2 building unit at 9 with D-Cys on its omega-amine; C-terminal amide; ReO (oxorhenium(V)) chelated by the two Cys closes the ring
B11: ReO-GF-41 (peptide)
peptide: CGFW[dW]KTF[N(2-Aminoethyl)Gly](Cys)-NH2
modifications: bridge (positions not given here) via ReO; not fully specified (bridges); also: N2S2 oxorhenium(V) chelate via the two Cys
B12: ReO-GF-23 (peptide)
peptide: CXFWWKTFG
modifications: D-Cys at 1; beta-Ala at 2 (written X); D-Trp at 5; GlyN3 building unit at 9 with L-Cys on its omega-amine; C-terminal amide; ReO (oxorhenium(V)) chelated by the two Cys closes the ring
B13: ReO-GF-18 (peptide)
peptide: CXFWWKTFG
modifications: L-Cys at 1; GABA at 2 (written X); D-Trp at 5; GlyN3 building unit at 9 with D-Cys on its omega-amine; C-terminal amide; ReO (oxorhenium(V)) chelated by the two Cys closes the ring
B14: ReO-GF-39 (peptide)
peptide: CXFWWKTFG
modifications: D-Cys at 1; beta-Ala at 2 (written X); D-Trp at 5; GlyN2 building unit at 9 with L-Cys on its omega-amine; C-terminal amide; ReO (oxorhenium(V)) chelated by the two Cys closes the ring
B15: ReO-GF-25 (peptide)
peptide: CGFW[dW]KTF[GlyN3](Cys)-NH2
modifications: bridge (positions not given here) via ReO; not fully specified (bridges); also: N2S2 oxorhenium(V) chelate via the two Cys
B16: ReO-GF-47 (peptide)
peptide: CFWWKTFG
modifications: not fully specified; D-Cys at 1; D-Trp at 4; GlyN2 building unit at 8 with L-Cys on its omega-amine; C-terminal amide; ReO (oxorhenium(V)) chelated by the two Cys closes the ring
B17: ReO-GF-24 (peptide)
peptide: CXFWWKTFG
modifications: not fully specified; D-Cys at 1; beta-Ala at 2 (written X); D-Trp at 5; GlyN3 building unit at 9 with D-Cys on its omega-amine; C-terminal amide; ReO (oxorhenium(V)) chelated by the two Cys closes the ring
B18: ReO-GF-35 (peptide)
peptide: CXFWWKTFG
modifications: D-Cys at 1; GABA at 2 (written X); D-Trp at 5; GlyN2 building unit at 9 with L-Cys on its omega-amine; C-terminal amide; ReO (oxorhenium(V)) chelated by the two Cys closes the ring
B19: ReO-GF-8 (peptide)
peptide: CXFWWKTFG
modifications: not fully specified; D-Cys at 1; beta-Ala at 2 (written X); D-Trp at 5; GlyN6 building unit at 9 with D-Cys on its omega-amine; C-terminal amide; ReO (oxorhenium(V)) chelated by the two Cys closes the ring
B20: ReO-GF-31 (peptide)
peptide: CFWWKTFG
modifications: not fully specified; D-Cys at 1; D-Trp at 4; GlyN3 building unit at 8 with L-Cys on its omega-amine; C-terminal amide; ReO (oxorhenium(V)) chelated by the two Cys closes the ring
notes: also called ReO-DCys*-Phe-Trp-DTrp-Lys-Thr-Phe-GlyN3(LCys*)-NH2
B21: ReO-GF-44 (peptide)
peptide: CGFWWKTFG
modifications: not fully specified; D-Cys at 1; D-Trp at 5; GlyN2 building unit at 9 with D-Cys on its omega-amine; C-terminal amide; ReO (oxorhenium(V)) chelated by the two Cys closes the ring
B22: ReO-GF-9 (peptide)
peptide: CGFW[dW]KTF[N(6-aminohexyl)Gly](Cys)-NH2
modifications: bridge (positions not given here); not fully specified (bridges); also: N2S2 oxorhenium(V) chelate via the two Cys
B23: ReO-GF-46 (peptide)
peptide: CFW[dW]KTF[N(2-Aminoethyl)Gly](dC)-NH2
modifications: bridge (positions not given here) via ReO; not fully specified (bridges); also: N2S2 oxorhenium(V) chelate via the two Cys

Tested on: SST-R2 and SST-R5
Test: not given
Conditions: activity described in WO 99/65508; cited from earlier work

Molecule | receptor selectivity
*GABA-Phe-Trp-DTrp-Lys-Thr-Phe-GlyC3*-NH2 [PTR 3173] | selective for SST-R2 and SST-R5

Target: T1, human cloned SST-R2 (human, UniProt P30874 1-369)
T1 construct: whole, on cells; Assayed as membrane preparations of CHO cells expressing the cloned receptor, not as intact cells; also called hSST-R2; human SST-R2
Test: inhibition of 125I-Tyr11-SRIF-14 binding to membranes of CHO cells expressing cloned human SST-R2
Conditions: not given
Procedure: The SST analogs were tested for their potency in inhibition of the binding of ¹²⁵I-Tyr¹¹-SRIF (based on the method described by Raynor et. al., Molecular Pharmnacology 43: 838, 1993) to membrane preparations expressing the transmembranal SST receptors (SST-R1, 2, 3, 4 or 5). The receptor preparations used for these tests were either from the cloned human receptors selectively and stably expressed in Chinese Hamster Ovary (CHO) cells or from cell lines naturally expressing the SST-R5. Typically, cell membranes were homogenized in Tris buffer in the presence of protease inhibitors and incubated for 30-40 minutes with ¹²⁵I-Tyr¹¹-SRIF with different concentrations of the tested sample. The binding reactions were filtered, the filters were washed and the bound radioactivity was counted in β counter after addition of scintillation colution. Non specific binding was defined as the radioactivity remaining bound in the presence of 1 μM unlabeled SRIF-14.

T1 sequence (P30874 whole entry): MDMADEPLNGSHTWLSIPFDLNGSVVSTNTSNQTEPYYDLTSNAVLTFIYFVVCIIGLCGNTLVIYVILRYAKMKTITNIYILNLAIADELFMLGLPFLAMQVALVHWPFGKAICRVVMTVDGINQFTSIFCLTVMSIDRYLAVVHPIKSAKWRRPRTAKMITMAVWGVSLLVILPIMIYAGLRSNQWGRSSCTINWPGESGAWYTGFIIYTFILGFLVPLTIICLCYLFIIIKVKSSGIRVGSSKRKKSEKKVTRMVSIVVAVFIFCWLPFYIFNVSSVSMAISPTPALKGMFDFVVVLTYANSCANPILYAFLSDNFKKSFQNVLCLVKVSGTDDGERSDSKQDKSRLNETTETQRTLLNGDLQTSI

Molecule | IC50 [nM]
B1 | 3.8
B2 | 12
B3 | ~10
B4 | > 10
B5 | 5.3
B6 | > 10
B7 | 4
B8 | ~10
B9 | 16
B10 | ~100
B11 | > 10
B12 | ~10
B13 | ~10
B14 | 10
B15 | > 10
B16 | > 10
B17 | 23
B18 | > 10
B19 | 5
B20 | 1.6
B21 | > 10
B22 | ~10
B23 | > 10
